For 26 molecules, EC50, Fold change and OD (PE binding ELISA) results are on record in patent US20240409645A1.

The target in test [1] is cynomolgus monkey IL-2Rα/CD25 subunit (cynomolgus monkey) (UniProt H6WS54). In words: ELISA, monovalent VHH-hFc.
Test [2] deals with human interleukin-2 receptor α-chain (IL-2Rα; CD25), recombinant protein (human) (UniProt P01589). The experiment in a line: ELISA, monovalent VHH-hFc.
Test [3] has as its target cynomolgus monkey IL-2Rα/CD25 subunit (cynomolgus monkey) (UniProt H6WS54). The experiment in a line: ELISA, monovalent; EC50 cyno vs human subunit. On the technique in general: An ELISA detects its analyte on a solid surface through an enzyme-linked reagent.
In a further test the target is T1, mouse IL-2Rα (mouse) (UniProt P01590).
T1 sequence (looked up): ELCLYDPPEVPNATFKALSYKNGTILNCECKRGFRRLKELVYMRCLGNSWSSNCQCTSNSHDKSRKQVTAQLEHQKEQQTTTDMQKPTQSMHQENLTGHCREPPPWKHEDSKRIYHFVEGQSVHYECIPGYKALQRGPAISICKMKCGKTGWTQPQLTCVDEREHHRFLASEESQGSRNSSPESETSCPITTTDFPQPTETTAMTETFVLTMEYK
The experiment in a line: ELISA, P.E. on coated antigen.

Test [4] concerns the target T2, human interleukin-2 receptor β-chain (IL-2Rβ; CD122), recombinant protein (human) (UniProt P14784).
T2 sequence: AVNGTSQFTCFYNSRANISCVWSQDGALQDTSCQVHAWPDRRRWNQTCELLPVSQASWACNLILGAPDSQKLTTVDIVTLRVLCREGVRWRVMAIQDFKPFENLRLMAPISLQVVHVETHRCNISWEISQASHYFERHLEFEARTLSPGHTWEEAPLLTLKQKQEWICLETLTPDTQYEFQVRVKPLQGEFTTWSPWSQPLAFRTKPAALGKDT
In words: ELISA, monovalent VHH-hFc.

Substitutions are numbered along the chain they refer to.

Sequence of cynomolgus monkey IL-2Rα/CD25 subunit (cynomolgus monkey) (H6WS54 entry or part of it): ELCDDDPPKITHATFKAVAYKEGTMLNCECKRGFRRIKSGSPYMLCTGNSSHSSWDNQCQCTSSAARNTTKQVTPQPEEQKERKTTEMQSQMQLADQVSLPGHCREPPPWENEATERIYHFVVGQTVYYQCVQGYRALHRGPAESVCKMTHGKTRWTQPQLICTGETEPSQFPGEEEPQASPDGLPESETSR
Sequence of human interleukin-2 receptor α-chain (IL-2Rα; CD25), recombinant protein (human) (P01589 22-240 limits assumed): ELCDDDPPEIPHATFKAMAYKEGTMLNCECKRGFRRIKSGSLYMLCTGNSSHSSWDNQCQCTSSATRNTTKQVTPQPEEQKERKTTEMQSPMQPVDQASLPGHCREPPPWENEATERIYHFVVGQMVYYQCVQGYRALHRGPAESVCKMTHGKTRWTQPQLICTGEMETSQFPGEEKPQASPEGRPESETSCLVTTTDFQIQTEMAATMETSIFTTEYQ

B1: 11-MP05H04 VHH-hFc, monospecific monovalent (Fc fusion, part only; not given: Both Fc arms and linker, not shown: another chain or arm of the molecule; a dimerising Fc or GST; small tags and cut ends)
VHH: QLQLVESGGGLVQAGGSLRLSCAASGLTFEGYAIGWFRQAPGKEREGVSYITGSDGTTYYINSVKGRFTISSDNAKSTVYLQMNTLKPEDTAVYYCAVDRLGSQGRYASAWWRSGDMDLWGKGTQVTVSS
Broadly, the EC50 is the concentration giving half of the maximal effect. On to B1, for which the concentration for a half-maximal effect (EC50) in test [1] was 1.25 nM; in test [2], 0.378 nM. Further, the Fold change in test [3] was 3.3 fold.

B2: FJ1427_P035MP01H10 (VHH)
VHH: QVQLVESGGGLVETGGSLRLSCAASGITFNDHTMAWFRQAPGKEREFVAARDWSDIITRYASSVKGRFTISRDNAGNTGFLQMNSLRPEDTAVYYCAAREGGVVAGVRSGAPYDYWGQGTQVTVSS
For B2, in the test with mouse IL-2Rα (mouse), the OD (PE binding ELISA) turned out to be 0.057 OD450 nm.

B3: 9-MP05G01 VHH-hFc, monospecific monovalent (Fc fusion, part only; not given: Both Fc arms and linker, not shown: another chain or arm of the molecule; a dimerising Fc or GST; small tags and cut ends)
VHH: EVQLVESGGGLVQAGGSLRLSCAASGGSIYTYNMGWFRQAPGKEREFVAGTLWSGGDSVYADFAKGRFTLSRENAKNTLYLQMNSLKPEDTATYYCAIDPLSLTSDWRVDELSSWGKGTLVTVSS
In the case of B3, the half-maximal effective concentration (EC50) came to 0.074 nM in test [1] and 0.078 nM in test [2]. Further, the Fold change in test [3] came to 1 fold.

B4: 6-MP01G05 VHH-hFc, monospecific monovalent (Fc fusion, part only; not given: Both Fc arms and linker, not shown: another chain or arm of the molecule; a dimerising Fc or GST; small tags and cut ends)
VHH: QVQLQESGGGLVQAGGSLRLSCAASGRTFSSYAMGWFRQAPGKEREFVAVISWNVDNTEYTDSVKGRFTISRDNDKNMVYLQMNSLKPEDTAVYYCAADSIPLSSDMSPTATEYGYWGQGTQVTVSS
With B4, the EC50 in test [1] was 0.317 nM; in test [2], 0.27 nM. This molecule gave a Fold change in test [3] of 1.2 fold.

B5: FJ1427_P035MP01G10 (VHH)
VHH: EVQLVESGGGLVQAGGSLRLSCAASGGAFSRYAVGWFRMAPGKGREFVSAIDLSGTNTHVLDSVKGRFTISRDNDKNTAYLQMDKLQPEDTAVYWCAATSSSYSDYEANYNIWGQGTQVTVSS
Turning to B5, in the test with mouse IL-2Rα (mouse), the OD (PE binding ELISA) turned out to be 0.046 OD450 nm.

B6: 2-MP01A02 VHH-hFc, monospecific monovalent (Fc fusion, part only; not given: Both Fc arms and linker, not shown: another chain or arm of the molecule; a dimerising Fc or GST; small tags and cut ends)
VHH: QVQLVESGGGLVQPGGSLRLSCATSGFTFRNNFMSWVRQAPGKGLEWVSTISYGGESTTYAESVKGRFTISRDNAKNTLYLQMNNLKPEDTAVYYCAKATSYDSIRSGSRGQGTQVTVSS
B6: the half-maximal effective concentration (EC50) in test [1] came to 0.096 nM; in test [2], 0.074 nM. In test [3], this molecule registered a Fold change of 1.3 fold.

B7: 8-MP01C12 VHH-hFc, monospecific monovalent (Fc fusion, part only; not given: Both Fc arms and linker, not shown: another chain or arm of the molecule; a dimerising Fc or GST; small tags and cut ends)
VHH: B6 VHH with R30S, W47F, S63A, V93I, D103T, S107G, G108A, S109P
Take B7: the EC50 in test [1] stood at 0.069 nM; in test [2], 0.065 nM. In test [3], this molecule came in with a Fold change of 1.1 fold.

B8: FJ1427_P035MP01D09 (VHH)
VHH: B6 VHH with T24A, R30S
On to B8, for which the OD (PE binding ELISA) with mouse IL-2Rα (mouse) was determined as 0.045 OD450 nm.

B9: FJ1427_P035MP01E11 (VHH)
VHH: B6 VHH with T24A, R30S, G54F, E56D, T59R, A75E, Q112R
Molecule B9 gave an OD (PE binding ELISA) with mouse IL-2Rα (mouse) of 0.046 OD450 nm.

B10: FJ1427_P035MP01A11 (VHH)
VHH: QVQLVESGGGLVQPGGSLRLSCAASGRTFETHNMGWFRRAPGKEREFVAVISWNVDSTEYTDSVKGRFTISRDNDKNMVYLQMNSLKPEDTGVYYCAADNIPLSSDMSPTAAEYGYWGQGTQVTVSS
Turning to B10, the OD (PE binding ELISA) with mouse IL-2Rα (mouse) stood at 0.046 OD450 nm.

B11: 7-MP01G08 VHH-hFc, monospecific monovalent (Fc fusion, part only; not given: Both Fc arms and linker, not shown: another chain or arm of the molecule; a dimerising Fc or GST; small tags and cut ends)
VHH: EVQLVESGGGLVQAGGSLRLSCAASGRAFSMYNMGWFRQAPGKEREFVAATGWSGANTPYADSVKGRFTISRDNTQNTVYLQMNSLKPEDTATYYCAADSIRLRSDVTRIPLEYDYWGQGTQVTVSS
Take B11: the EC50 worked out at 0.133 nM in test [1] and 0.173 nM in test [2]. Besides, the Fold change in test [3] was determined as 0.8 fold.

B12: 10-MP05F03 VHH-hFc, monospecific monovalent (Fc fusion, part only; not given: Both Fc arms and linker, not shown: another chain or arm of the molecule; a dimerising Fc or GST; small tags and cut ends)
VHH: QVQLVESGGGLVQAGGSLRLSCAASGIPFDNYAMGWFRQAPGKEREFVAARDLEGIITRYGDSVKGRFTISRGNAKNTVFLQMNSLKPEDTAVYYCAARDGGVVAGSRSSAQYNYWGQGTQVTVSS
On to B12, for which the EC50 is 0.098 nM in test [1] and 0.105 nM in test [2]. Besides, the Fold change in test [3] is 0.9 fold.

B13: 5-MP01F05 VHH-hFc, monospecific monovalent (Fc fusion, part only; not given: Both Fc arms and linker, not shown: another chain or arm of the molecule; a dimerising Fc or GST; small tags and cut ends)
VHH: EVQLVESGGGLVQAGGSLRLSCAASIRAFTTWSMAWFRQAPGKEREYVARINVSGSVTYYADFVKGRFTISRDNAKKTMYLEMNNLKPEDTALYYCAADRTGVGTNDYNYWGQGTQVTVSS
With B13, the concentration giving a half-maximal response (EC50) in test [1] stood at 0.136 nM; in test [2] it was 0.088 nM. The molecule also had a Fold change in test [3] of 1.5 fold.

B14: FJ1427_P035MP01E10 (VHH)
VHH: QVQLVESGGGLVQAGDSLRLSCAASGRSFRNYILAWYRQAPGKEREFLAAISWLDGTLYADSVEDRFTISRDNPKNTVHLQMDSLKPEDTAVYYCAADRGPVRPVLAPDVDYWGQGTQVTVSS
The molecule B14 registered an OD (PE binding ELISA) with mouse IL-2Rα (mouse) of 0.046 OD450 nm.

B15: FJ1427_P035MP01D11 (VHH)
VHH: B14 VHH with V2L, L34M
Molecule B15 returned an OD (PE binding ELISA) in the test with mouse IL-2Rα (mouse) of 0.045 OD450 nm.

B16: FJ1427_P035MP01F11 (VHH)
VHH: B14 VHH with V5Q
Regarding B16, in the test with mouse IL-2Rα (mouse), the OD (PE binding ELISA) stood at 0.047 OD450 nm.

B17: FJ1427_P035MP01B12 (VHH)
VHH: B14 VHH with V5Q, L58F, D61N, D65G, S84G, S122A
Take B17: in the test with mouse IL-2Rα (mouse), the OD (PE binding ELISA) stood at 0.046 OD450 nm.

B18: FJ1427_P035MP01F08 (VHH)
VHH: EVQLVESGGGWVQPGDSLRLSCAASGRSFRNYVMGWFRQVPGKEREFLSVITSLGGTLDADSVADRFTISRDNSKNTVYLQMDSLKPEDTAVYYCAADRGPARYISASDVDYWGQGTQVTVSS
In turn, B18 showed an OD (PE binding ELISA) in the test with mouse IL-2Rα (mouse) of 0.046 OD450 nm.

B19: 15-MP02E06 VHH-hFc, monospecific monovalent (Fc fusion, part only; not given: Both Fc arms and linker, not shown: another chain or arm of the molecule; a dimerising Fc or GST; small tags and cut ends)
VHH: QVQLVESGGGSVQPGGSLRLSCAASGFTFSNYAMSWVRQAPGKGLEWVASITGFGRGTDYADSVKGRFTISRDNAEDTLYLQMNSLKPEDTAVYYCAKYSSSTYYPPTPARGRDYRGQGTQVTVSS
For B19, in test [4], the EC50 worked out at 0.64 nM.

B20: 18-MP03C03 VHH-hFc, monospecific monovalent (Fc fusion, part only; not given: Both Fc arms and linker, not shown: another chain or arm of the molecule; a dimerising Fc or GST; large carriers; small tags and cut ends)
VHH: QVQLVESGGGLVQPGGSLRLSCAISGGTLDSYGIGWVRQAPGKQREGVSCMSRSDDRTYYADSVKGRFTISKDSAKNTVYLQMTSLKPEDTAVYYCAAVDAYGCSLVQPTTYDFWGLGTQVTVSS
Turning to B20, the concentration giving a half-maximal response (EC50) in test [4] was 0.373 nM.

B21: 12-MP05B12 VHH-hFc, monospecific monovalent (Fc fusion, part only; not given: Both Fc arms and linker, not shown: another chain or arm of the molecule; a dimerising Fc or GST; small tags and cut ends)
VHH: QVQLVESGGGLVQAGGSLRLSCAASGFTFDGYAIGWFRQAPGKEREGVSYITGSDGSTYYADSVKGRFTISSNNAKNTVYLHMNSLKPDDAAVYYCAIDRLGSRGAYVPIWWRSSDMDLWGKGTLVTVSS
On to B21, for which the EC50 in test [1] came out at 1.1 nM; in test [2] it was 0.13 nM. The Fold change in test [3] is 8.5 fold.

B22: 3-MP01E03 VHH-hFc, monospecific monovalent (Fc fusion, part only; not given: Both Fc arms and linker, not shown: another chain or arm of the molecule; a dimerising Fc or GST; small tags and cut ends)
VHH: QVQLVESGGGLVQAGGSLRLSCTASGRTLSSYSMAWFRQAADKGREFVTAISSSGVVTHVLDSVKGRFTISRDNAKNTVYLQMNSLQPEDTALYFCAGTASSYSTYEANYNYWGQGTLVTVSS
On to B22, for which the concentration for a half-maximal effect (EC50) turned out to be 1.15 nM in test [1] and 0.086 nM in test [2]. The Fold change in test [3] is 13.4 fold.

B23: 1-MP01H01 VHH-hFc, monospecific monovalent (Fc fusion, part only; not given: Both Fc arms and linker, not shown: another chain or arm of the molecule; a dimerising Fc or GST; small tags and cut ends)
VHH: EVQLVESGGGLVQAGGSLRLSCAASGRTFRTHNMGWFRRAPGKEREFVAAISWNVDNTLYADSVKGRFTISRDNGRNMVYLQMNSLKPEDTAVYYCAADNIPLSSDVAATATEYDYWGQGTQVTVSS
Turning to B23, the figures for the half-maximal effective concentration (EC50) in test [1] and in test [2] were 0.498 nM and 0.478 nM, respectively. In test [3], the Fold change came out at 1 fold.

B24: 4-MP01F04 VHH-hFc, monospecific monovalent (Fc fusion, part only; not given: Fc arms with stated mutations, not shown: another chain or arm of the molecule; a dimerising Fc or GST; small tags and cut ends)
VHH: B23 VHH with E1Q, R27G, H32R, I51V, T58K, V107M, A108R, A109P
Turning to B24, the 50% effective concentration (EC50) came out at 0.074 nM in test [1] and 0.077 nM in test [2]. In test [3], this molecule displayed a Fold change of 1 fold.

B25: FJ1427_P035MP01H08 (VHH)
VHH: B23 VHH with G10R, A14S, T28A, R30S, T58K, D62N, T69A, V107M, A108R, Y116V
In the case of B25, the OD (PE binding ELISA) with mouse IL-2Rα (mouse) stood at 0.047 OD450 nm.

B26: FJ1427_P035MP01H11 (VHH)
VHH: B23 VHH with E1Q, G75D, Y95F, A108R, Y114F, D115G, Q122R
B26: in the test with mouse IL-2Rα (mouse), the OD (PE binding ELISA) came out at 0.047 OD450 nm.
